Results on one molecule are retold here after paper PMC3534766.

In the series the target is FUS-RRM wild type (Homo sapiens, UniProt P35637 278-385). Nature of the series: NMR titration.
Sequence of FUS-RRM wild type (P35637 278-385): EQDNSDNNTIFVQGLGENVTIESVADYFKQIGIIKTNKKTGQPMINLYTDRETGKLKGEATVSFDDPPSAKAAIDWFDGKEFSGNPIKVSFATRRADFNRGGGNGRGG

Regarding TTAGGGTTAGGGTTAGGGTTAGGG (structured_DNA) [24-mer d(TTAGGG)4 (NMR)], the binding result is listed as “binds”.
